Measurements taken from publication PMC7093598.

Legend:
[1] = biological target: titin N2A construct(s), number of N2A-Us elements not stated for the experiment (human) (UniProt Q8WZ42)
[2] = biological target: titin N2A construct(s), number of N2A-Us elements not stated for the experiment (human) (UniProt Q8WZ42); remark: listed apart in the source

Q: “CARP (Cardiac Ankyrin Repeat Protein) 106-319, N-terminally truncated construct corresponding to the titin-binding region (from UniProt Q15327 106-319) (domain or fragment)” was tested. Which unfolding rate constant α0 of the Ig domains in the absence of applied force with CARP, from the Bell fit of the force clamp data [1] did it give?
A: 0.43 s⁻¹

Q: And the unfolding rate α of the Ig domains with CARP, AFM force clamp at clamp forces of 100-150 pN; value printed at 100 pN (3.2 s^-1 without CARP) [1]?
A: 2.4 s⁻¹

Q: What about the increase of the Ig domain unfolding force (F unfold, force peaks 1-4) with CARP, AFM force-extension curves at 400 nm/s [2] of the same substance?
A: 20 pN
